Results: patent US20250101437, “[…] FOR […] VARIANTS OF A TARGET ANALYTE, METHODS OF MAKING AND USES […]” (McMaster University, published 2025)

How the values were obtained:
[1] = target: SARS-CoV-2 spike S1 subunit, original Wuhan (SARS-CoV-2 (Wuhan), UniProt P0DTC2 P0DTC2:16-685); experiment: filter; dot blot; conditions: tags: Sino Biological 40591-V08B1, label: 5'-32P
[2] = target: T1, SARS-CoV-2 spike S1 subunit, original Wuhan (SARS-CoV-2 (Wuhan), UniProt P0DTC2 P0DTC2:16-685); experiment: competition; conditions: tags: Sino Biological 40591-V08B1
[3] = target: SARS-CoV-2 spike trimer, original Wuhan (WHS) (SARS-CoV-2 (Wuhan-Hu-1), UniProt P0DTC2 P0DTC2:14-1213); experiment: filter; […]; binding buffer ([…], Mg, Tween-20, pH 7.4); conditions: tags: full-length trimeric spike, Expi293 cells, Ni-NTA purified; chain copies: 3 (stated trimeric); label: 5'-32P
OC43 spike RBD = OC43 spike RBD (Human coronavirus OC43, UniProt P36334 P36334:333-607); experiment: filter; dot blot; very weak binding; conditions: label: 5'-32P; four-way junction (proposed)
Chain of OC43 spike RBD (P36334 333-607, one chain of several): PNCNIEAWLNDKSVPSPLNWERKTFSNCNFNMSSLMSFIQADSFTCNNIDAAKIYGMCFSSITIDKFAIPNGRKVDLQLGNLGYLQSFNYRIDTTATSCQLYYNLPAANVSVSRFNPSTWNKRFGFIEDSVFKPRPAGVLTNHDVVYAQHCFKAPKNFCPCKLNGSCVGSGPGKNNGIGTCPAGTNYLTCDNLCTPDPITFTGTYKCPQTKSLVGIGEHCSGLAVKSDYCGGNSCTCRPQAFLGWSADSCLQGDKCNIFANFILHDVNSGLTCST

229E spike RBD = 229E spike RBD (Human coronavirus 229E, UniProt P15423 P15423:293-435); experiment: filter; dot blot; very weak binding; conditions: label: 5'-32P; four-way junction (proposed)
Chain of 229E spike RBD (P15423 293-435, one chain of several): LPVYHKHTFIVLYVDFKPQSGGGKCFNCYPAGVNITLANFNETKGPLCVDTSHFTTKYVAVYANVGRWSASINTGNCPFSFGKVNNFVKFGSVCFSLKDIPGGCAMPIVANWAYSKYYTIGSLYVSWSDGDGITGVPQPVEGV

SARS-CoV-1 spike protein = SARS-CoV-1 spike protein (SARS-CoV-1, UniProt P59594 P59594:14-1195); experiment: filter; conditions: label: 5'-32P
MERS-CoV spike RBD = MERS-CoV spike RBD (MERS-CoV, UniProt K9N5Q8 K9N5Q8:367-606); experiment: filter; conditions: label: 5'-32P
SARS-CoV-1 spike RBD = SARS-CoV-1 spike RBD (SARS-CoV-1, UniProt P59594 P59594:306-527); experiment: filter; conditions: label: 5'-32P
[4] = target: SARS-CoV-2 spike (WH) on pseudotyped lentivirus (SARS-CoV-2 (Wuhan-Hu-1), UniProt P0DTC2 P0DTC2:14-1273); experiment: filter; conditions: protein: virion; tags: pseudotyped lentivirus, BEI NR-52948 kit; chain copies: 3; label: 5'-32P; four-way junction (proposed)
Bovine serum albumin = Bovine serum albumin (Bos taurus, UniProt P02769 P02769:25-607); experiment: filter; 50 nM protein; conditions: tags: Sigma-Aldrich; label: 5'-32P; four-way junction (proposed)
Chain of Bovine serum albumin (P02769 25-607, one chain of several): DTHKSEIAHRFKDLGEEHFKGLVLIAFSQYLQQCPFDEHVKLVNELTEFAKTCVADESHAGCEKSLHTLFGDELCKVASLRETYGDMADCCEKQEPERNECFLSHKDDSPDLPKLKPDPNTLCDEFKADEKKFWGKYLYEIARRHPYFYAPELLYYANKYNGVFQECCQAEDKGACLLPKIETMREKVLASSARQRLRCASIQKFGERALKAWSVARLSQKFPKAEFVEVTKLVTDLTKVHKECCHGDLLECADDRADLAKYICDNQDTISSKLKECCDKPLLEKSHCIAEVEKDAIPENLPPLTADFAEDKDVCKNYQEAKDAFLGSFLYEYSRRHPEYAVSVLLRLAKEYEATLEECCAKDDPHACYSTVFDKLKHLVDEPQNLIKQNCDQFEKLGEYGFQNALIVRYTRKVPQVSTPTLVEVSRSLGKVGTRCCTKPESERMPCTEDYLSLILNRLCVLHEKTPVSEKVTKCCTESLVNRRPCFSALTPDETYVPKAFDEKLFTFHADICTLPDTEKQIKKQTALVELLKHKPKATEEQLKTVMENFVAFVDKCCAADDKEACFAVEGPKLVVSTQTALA

alpha-thrombin = alpha-thrombin (Homo sapiens, UniProt P00734;P00734 P00734:328-363,P00734:364-622); experiment: filter; 50 nM protein; conditions: tags: Sigma-Aldrich; label: 5'-32P; four-way junction (proposed)
NL63 spike RBD = NL63 spike RBD (Human coronavirus NL63, UniProt Q6Q1S2 Q6Q1S2:481-616); experiment: filter; 50 nM protein; conditions: label: 5'-32P; four-way junction (proposed)
Chain of NL63 spike RBD (Q6Q1S2 481-616, one chain of several): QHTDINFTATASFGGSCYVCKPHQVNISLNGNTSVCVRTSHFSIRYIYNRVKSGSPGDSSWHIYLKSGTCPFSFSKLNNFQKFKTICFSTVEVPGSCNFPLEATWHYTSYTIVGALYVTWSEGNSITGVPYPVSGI

[5] = target: T1, SARS-CoV-2 spike S1 subunit, original …; experiment: filter; dot blot; conditions: tags: Sino Biological 40591-V08B1; label: 5'-32P

B1: MSA52-T2 (ssDNA)
DNA: TTACGTCAAGGTGTCACTCCGTAGGGTTTGCTGGCGTCGGTCGTCTCTCGCGAAGCATCTCTTTGGCGTG
[1]
  Kd: 53.4 nM

B2: MSA52-T3 (ssDNA)
DNA: TTACGTCAAGGTGTCACTCCGTAGGGTTTGGCTCCGGGCCTGGCATCTCTTTGGCGTG
[1]
  Kd: 94.8 nM

B3: Mutant Control (MC, shuffled MSA52) (ssDNA)
DNA: TCTTTCGTGCCATCCTGCGGGTGGCTGTCCGAGGCTGGTGGCTCTGCAAGTGCCACGCTTTATCTGAGGTTCGCCGGTA
[2]
  binding result: no binding

B4: MSA52-T4 (ssDNA)
DNA: TTACGTCAAGGTGTCACTCCGTAGGGTTTGGCTCCGGGCCTGGCGTCGGTCGCGAAGCATCTCTTTGGCGTG
[1]
  Kd: 6 nM

B5: MSA52-T1 (ssDNA)
DNA: TTACGTCAAGGTGTCATTGGCTCCGGGCCTGGCGTCGGTCGTCTCTCGCGAAGCATCTCTTTGGCGTG
[1]
  Kd: 61.8 nM

B6: MSA52 (ssDNA)
DNA: TTACGTCAAGGTGTCACTCCGTAGGGTTTGGCTCCGGGCCTGGCGTCGGTCGTCTCTCGCGAAGCATCTCTTTGGCGTG
[3]
  Kd: 3.6 nM
OC43 spike RBD
  Kd: > 200 nM
229E spike RBD
  Kd: > 200 nM
SARS-CoV-1 spike protein
  Kd: > 150 nM
MERS-CoV spike RBD
  binding result: no binding
SARS-CoV-1 spike RBD
  binding result: no binding
[4]
  Kd: 0.0184 nM
Bovine serum albumin
  binding result: no binding
alpha-thrombin
  binding result: no binding
NL63 spike RBD
  binding result: no binding
[5]
  Kd: 6.6 nM

B7: MSA52-T5 (ssDNA)
DNA: ACGCCAAGGTGTCACTCCGTAGGGTTTGGCTCCGGGCCTGGCGTCGGTCGCGAAGCATCTCCTTGGCGT
[1]; four-way junction (proposed)
  Kd: 5.5 nM
